Test results published in publication PMC7840129, “Structural basis for heme-dependent NCoR binding to the transcriptional repressor REV-ERBβ” (Science Advances, 2021).
Where no end group is shown, it is not given here.

B1: NCoR ID2 peptide (peptide)
peptide: DPASNLGLEDIIRKALMGSFDDK
modifications: not fully specified
notes: source: synthetic peptide, bought: LifeTein
B2: mouse NCoR RID ΔID2 mutant (domain or fragment)
chain: QVPRTHRLITLADHICQIITQDFARNQVPSQASTSTFQTSPSALSSTPVRTKTSSRYSPESQSQTVLHPRPGPRVSPENLVDKSRGSRPGKSPERSHIPSEPYEPISPPQGPAVHEKQDSMLLLSQRGVDPAEQRSDSRSPGSISYLPSFFTKLESTSPMVKSKKQEIFRKLNSSGGGDSDMAAAQPGTEIFNLPAVTTSGAVSSRSHSFADPASNLGTEDTTRKALMGSFDDKVEDHGVVMSHPVGIMPGSASTSVVTSSEARRDE
B3: mouse NCoR receptor interaction domain (residues 1942 to 2208 in the X50 splice variant), wild type (domain or fragment)
chain: QVPRTHRLITLADHICQIITQDFARNQVPSQASTSTFQTSPSALSSTPVRTKTSSRYSPESQSQTVLHPRPGPRVSPENLVDKSRGSRPGKSPERSHIPSEPYEPISPPQGPAVHEKQDSMLLLSQRGVDPAEQRSDSRSPGSISYLPSFFTKLESTSPMVKSKKQEIFRKLNSSGGGDSDMAAAQPGTEIFNLPAVTTSGAVSSRSHSFADPASNLGLEDIIRKALMGSFDDKVEDHGVVMSHPVGIMPGSASTSVVTSSEARRDE
B4: human REV-ERBβ ligand-binding domain (residues 381 to 579) (domain or fragment, UniProt Q14995 381-579, looked up)
chain: HLVCPMSKSPYVDPHKSGHEIWEEFSMSFTPAVKEVVEFAKRIPGFRDLSQHDQVNLLKAGTFEVLMVRFASLFDAKERTVTFLSGKKYSVDDLHSMGAGDLLNSMFEFSEKLNALQLSDEEMSLFTAVVLVSADRSGIENVNSVEALQETLIRALRTLIMKNHPNEASIFTKLLLKLPDLRSLNNMHSEELLAFKVHP
notes: cloned into pET46; Used ligand-free (apo) or loaded with heme (a small molecule; 1.05 to 2 molar equivalents); the two states are told apart by the assays; also called REV-ERBβ LBD; LBD; source: E. coli BL21(DE3), purified (IMAC, 3C protease cleavage, size exclusion); 15N-labelled in M9 minimal media for NMR; not shown: 6xHis, N-terminal, cleaved
B6: NCoR ID1 peptide (peptide)
peptide: RTHRLITLADHICQIITQDFARN
modifications: not fully specified
notes: as for B1

Tests used:
[1] = target: B4; experiment: ITC; apo LBD (500 μM, syringe) titrated into ID peptide (50 μM, cell); 25°C; 20 mM Hepes pH 7.4, 50 mM KCl, 0.5 mM EDTA, 5 mM TCEP; A + B ↔ AB model in SEDPHAT; conditions: both partners purified
[2] = target: B4; experiment: ITC; apo LBD (300 μM, syringe; for WT RID 2 × 20 injections of 150 μM) titrated into RID construct (15 μM, cell); 25°C; Hepes assay buffer; WT RID fit to two nonsymmetric sites, microscopic K model; ΔID2 fit to A + B ↔ AB; conditions: both partners purified
[3] = target: B4; experiment: ITC; heme-bound LBD (300 μM, syringe) titrated into RID construct (15 μM, cell), 4 molar equivalents; 25°C; Hepes assay buffer; WT RID fit to A + B ↔ AB; conditions: both partners purified
[4] = target: B3; experiment: ITC; apo LBD (300 μM, syringe; for WT RID 2 × 20 injections of 150 μM) titrated into RID construct (15 μM, cell); 25°C; Hepes assay buffer; WT RID fit to two nonsymmetric sites, microscopic K model; ΔID2 fit to A + B ↔ AB; conditions: both partners purified
[5] = target: B2; experiment: as above; conditions: both partners purified
[6] = target: B3; experiment: as above; conditions: both partners purified
[7] = target: B3; experiment: ITC; heme-bound LBD (300 μM, syringe) titrated into RID construct (15 μM, cell), 4 molar equivalents; 25°C; Hepes assay buffer; WT RID fit to A + B ↔ AB; conditions: both partners purified
NCoR ID1 peptide [8] = target: B6; experiment: ITC; apo LBD (500 μM, syringe) titrated into ID peptide (50 μM, cell); 25°C; 20 mM Hepes pH 7.4, 50 mM KCl, 0.5 mM EDTA, 5 mM TCEP; A + B ↔ AB model in SEDPHAT; conditions: both partners purified
NCoR ID2 peptide [9] = target: B1; experiment: as above; conditions: both partners purified
[10] = target: B3; experiment: ITC; heme-bound LBD (300 μM, syringe) titrated into RID construct (15 μM, cell), 4 molar equivalents; 25°C; Hepes assay buffer; WT RID fit to A + B ↔ AB; conditions: both partners purified
NCoR ID1 peptide [11] = target: B6; experiment: ITC; heme-bound LBD (500 μM with 1.05 molar equivalents of heme, syringe) titrated into ID peptide (50 μM, cell); 25°C; 20 mM Hepes pH 7.4, 50 mM KCl, 0.5 mM EDTA, 5 mM TCEP; A + B ↔ AB model in SEDPHAT; conditions: both partners purified
NCoR ID2 peptide [12] = target: B1; experiment: as above; conditions: both partners purified
[13] = tested on: Bmal1 REV-RE promoter luciferase in HEK293T cells; experiment: Bmal1-luciferase transcriptional repression assay; type: cell-based, human; conditions: for fold repression of Bmal1-luciferase: HEK293T, 24 hours, relative to empty vector, n = 3 independent experiments
Excerpt: The human REV-ERBβ LBD (residues 381 to 579) was previously cloned into the pET46 vector ([18]). The mouse NCoR RID (residues 1942 to 2208 in the X50 splice variant), which has 87% sequence identity to human NCoR RID (100% sequence identity in the ID motifs), was previously cloned into the pET32 vector ([29]). NCoR RID mutants were generated by site-directed mutagenesis: The ID1 CoRNR box motif was mutated from […] to […] (ΔID1 and ΔID1ΔID2), and the ID2 CoRNR box motif was mutated from LEDIIRKAL to TEDTTRKAL (ΔID2 and ΔID1ΔID2), as these mutations were previously reported to disrupt CoRNR box binding ([10], [30]). Heme (Sigma-Aldrich, no. 51280) was prepared either as a 1 mM stock in dimethyl sulfoxide (DMSO) stored at 4°C or 50 mM stock in 0.2 M NaOH (solutions prepared in 0.2 M NaOH were always made fresh immediately before the experiment), where indicated. […] Human embryonic kidney (HEK) 293T cells (American Type Culture Collection, no. CRL-11268) were cultured in Dulbecco’s modified eagle medium (DMEM) supplemented with 10% fetal bovine serum, 2 mM L-glutamine, and 1% penicillin-streptomycin at 37°C and 5% CO2 under standard culture conditions. The pcDNA3.1^+ expression vector containing full-length human REV-ERBβ ([31]) and the pGL3-Bmal1-luciferase construct containing the Bmal1 promoter (−816 to +99 of the mouse Bmal1 promoter region) were used in HEK293T cell transfections. […]
HEK293T cells were plated at 1.5 × 10^3 cells per well in 96-well flat-bottom plates in DMEM 24 hours before transfection. […] Luciferase activity was harvested 24 hours after transfection with Britelite Plus (PerkinElmer) and read using a BioTek Synergy plate reader. Raw luminescence values of REV-ERBβ–transfected wells were normalized to pcDNA3.1 empty vector transfection wells individually for each Bmal1-luciferase construct to determine fold repression by REV-ERBβ for each Bmal1-luciferase construct. […]

[14] = target: B4; experiment: ITC; heme-bound LBD (500 μM with 1.05 molar equivalents of heme, syringe) titrated into ID peptide (50 μM, cell); 25°C; 20 mM Hepes pH 7.4, 50 mM KCl, 0.5 mM EDTA, 5 mM TCEP; A + B ↔ AB model in SEDPHAT; conditions: both partners purified

Molecule: B1
- Kd [1]: 84000 nM

Molecule: B2
- Kd [2]: 130 nM

Molecule: B3
- Kd [3]: 99 nM

Molecule: B4
- stoichiometry N [4]: 2 LBD per RID
- dH [5]: -9.4 kcal/mol
- KD site 1 [6]: 12 nM
- KD site 2 [6]: 740 nM
- dH site 1 [6]: -8.3 kcal/mol
- dH site 2 [6]: 3.2 kcal/mol
- dH [7]: 1.7 kcal/mol
- dH (NCoR ID1 peptide [8]): -7.7 kcal/mol
- dH (NCoR ID2 peptide [9]): -9.7 kcal/mol
- stoichiometry N [10]: ~2 LBD per RID
- dH (NCoR ID1 peptide [11]): 1.7 kcal/mol
- dH (NCoR ID2 peptide [12]): 3 kcal/mol

B5: REV-ERBβ: full-length human REV-ERBβ expressed from pcDNA3.1 vector in HEK293T cells (protein)
chain: HLVCPMSKSPYVDPHKSGHEIWEEFSMSFTPAVKEVVEFAKRIPGFRDLSQHDQVNLLKAGTFEVLMVRFASLFDAKERTVTFLSGKKYSVDDLHSMGAGDLLNSMFEFSEKLNALQLSDEEMSLFTAVVLVSADRSGIENVNSVEALQETLIRALRTLIMKNHPNEASIFTKLLLKLPDLRSLNNMHSEELLAFKVHP
modifications: left off: 6xHis, N-terminal, cleaved
notes: full-length human REV-ERBβ expressed from pcDNA3.1 vector in HEK293T cells
- fold repression of Bmal1-luciferase ([13]; WT Bmal1 construct): approximately ninefold
- fold repression of Bmal1-luciferase ([13]; mutant Bmal1 constructs (one or both DNA binding sites within REV-RE mutated)): approximately threefold
- reduction of repression in mutant vs WT Bmal1 constructs ([13]; pRORE, dRORE or p/dRORE mutants vs WT, ***P < 0.001 by Student's t test): more than half

Molecule: B6
- Kd [1]: 490 nM
- Kd [14]: 2400 nM
